Results published in patent publication US20250339531A1, “DUX4 POLYPEPTIDES AND NUCLEIC ACIDS FOR TREATING INFLAMMATORY AND AUTOIMMUNE CONDITIONS” (Fred Hutchinson Cancer Center, priority 2021, published 2025).

B1: O00469 (protein, UniProt O00469 1-737, looked up)
chain: MGGCTVKPQLLLLALVLHPWNPCLGADSEKPSSIPTDKLLVITVATKESDGFHRFMQSAKYFNYTVKVLGQGEEWRGGDGINSIGGGQKVRLMKEVMEHYADQDDLVVMFTECFDVIFAGGPEEVLKKFQKANHKVVFAADGILWPDKRLADKYPVVHIGKRYLNSGGFIGYAPYVNRIVQQWNLQDNDDDQLFYTKVYIDPLKREAINITLDHKCKIFQTLNGAVDEVVLKFENGKARAKNTFYETLPVAINGNGPTKILLNYFGNYVPNSWTQDNGCTLCEFDTVDLSAVDVHPNVSIGVFIEQPTPFLPRFLDILLTLDYPKEALKLFIHNKEVYHEKDIKVFFDKAKHEIKTIKIVGPEENLSQAEARNMGMDFCRQDEKCDYYFSVDADVVLTNPRTLKILIEQNRKIIAPLVTRHGKLWSNFWGALSPDGYYARSEDYVDIVQGNRVGVWNVPYMANVYLIKGKTLRSEMNERNYFVRDKLDPDMALCRNAREMGVFMYISNRHEFGRLLSTANYNTSHYNNDLWQIFENPVDWKEKYINRDYSKIFTENIVEQPCPDVFWFPIFSEKACDELVEEMEHYGKWSGGKHHDSRISGGYENVPTDDIHMKQVDLENVWLHFIREFIAPVTLKVFAGYYTKGFALLNFVVKYSPERQRSLRPHHDASTFTINIALNNVGEDFQGGGCKFLRYNCSIESPRKGWSFMHPGRLTHLHEGLPVKNGTRYIAVSFIDP
modifications: full-length
B2: P20020 (protein, UniProt P20020 1-1220, looked up)
chain: MGDMANNSVAYSGVKNSLKEANHDGDFGITLAELRALMELRSTDALRKIQESYGDVYGICTKLKTSPNEGLSGNPADLERREAVFGKNFIPPKKPKTFLQLVWEALQDVTLIILEIAAIVSLGLSFYQPPEGDNALCGEVSVGEEEGEGETGWIEGAAILLSVVCVVLVTAFNDWSKEKQFRGLQSRIEQEQKFTVIRGGQVIQIPVADITVGDIAQVKYGDLLPADGILIQGNDLKIDESSLTGESDHVKKSLDKDPLLLSGTHVMEGSGRMVVTAVGVNSQTGIIFTLLGAGGEEEEKKDEKKKEKKNKKQDGAIENRNKAKAQDGAAMEMQPLKSEEGGDGDEKDKKKANLPKKEKSVLQGKLTKLAVQIGKAGLLMSAITVIILVLYFVIDTFWVQKRPWLAECTPIYIQYFVKFFIIGVTVLVVAVPEGLPLAVTISLAYSVKKMMKDNNLVRHLDACETMGNATAICSDKTGTLTMNRMTVVQAYINEKHYKKVPEPEAIPPNILSYLVTGISVNCAYTSKILPPEKEGGLPRHVGNKTECALLGLLLDLKRDYQDVRNEIPEEALYKVYTFNSVRKSMSTVLKNSDGSYRIFSKGASEIILKKCFKILSANGEAKVFRPRDRDDIVKTVIEPMASEGLRTICLAFRDFPAGEPEPEWDNENDIVTGLTCIAVVGIEDPVRPEVPDAIKKCQRAGITVRMVTGDNINTARAIATKCGILHPGEDFLCLEGKDFNRRIRNEKGEIEQERIDKIWPKLRVLARSSPTDKHTLVKGIIDSTVSDQRQVVAVTGDGTNDGPALKKADVGFAMGIAGTDVAKEASDIILTDDNFTSIVKAVMWGRNVYDSISKFLQFQLTVNVVAVIVAFTGACITQDSPLKAVQMLWVNLIMDTLASLALATEPPTESLLLRKPYGRNKPLISRTMMKNILGHAFYQLVVVFTLLFAGEKFFDIDSGRNAPLHAPPSEHYTIVFNTFVLMQLFNEINARKIHGERNVFEGIFNNAIFCTIVLGTFVVQIIIVQFGGKPFSCSELSIEQWLWSIFLGMGTLLWGQLISTIPTSRLKFLKEAGHGTQKEEIPEEELAEDVEEIDHAERELRRGQILWFRGLNRIQTQIRVVNAFRSSLYEGLEKPESRSSIHNFMTHPEFRIEDSEPHIPLIDDTDAEDDAPTKRNSSPPPSPNKNNNAVDSGIHLTIEMNKSATSSSPGSPLHSLETSL
modifications: full-length
B3: Q14240 (protein, UniProt Q14240 1-407, looked up)
chain: MSGGSADYNREHGGPEGMDPDGVIESNWNEIVDNFDDMNLKESLLRGIYAYGFEKPSAIQQRAIIPCIKGYDVIAQAQSGTGKTATFAISILQQLEIEFKETQALVLAPTRELAQQIQKVILALGDYMGATCHACIGGTNVRNEMQKLQAEAPHIVVGTPGRVFDMLNRRYLSPKWIKMFVLDEADEMLSRGFKDQIYEIFQKLNTSIQVVLLSATMPTDVLEVTKKFMRDPIRILVKKEELTLEGIKQFYINVEREEWKLDTLCDLYETLTITQAVIFLNTRRKVDWLTEKMHARDFTVSALHGDMDQKERDVIMREFRSGSSRVLITTDLLARGIDVQQVSLVINYDLPTNRENYIHRIGRGGRFGRKGVAINFVTEEDKRILRDIETFYNTTVEEMPMNVADLI
modifications: full-length
B4: P68104 (protein, UniProt P68104 1-462, looked up)
chain: MGKEKTHINIVVIGHVDSGKSTTTGHLIYKCGGIDKRTIEKFEKEAAEMGKGSFKYAWVLDKLKAERERGITIDISLWKFETSKYYVTIIDAPGHRDFIKNMITGTSQADCAVLIVAAGVGEFEAGISKNGQTREHALLAYTLGVKQLIVGVNKMDSTEPPYSQKRYEEIVKEVSTYIKKIGYNPDTVAFVPISGWNGDNMLEPSANMPWFKGWKVTRKDGNASGTTLLEALDCILPPTRPTDKPLRLPLQDVYKIGGIGTVPVGRVETGVLKPGMVVTFAPVNVTTEVKSVEMHHEALSEALPGDNVGFNVKNVSVKDVRRGNVAGDSKNDPPMEAAGFTAQVIILNHPGQISAGYAPVLDCHTAHIACKFAELKEKIDRRSGKKLEDGPKFLKSGDAAIVDMVPGKPMCVESFSDYPPLGRFAVRDMRQTVAVGVIKAVDKKAAGAGKVTKSAQKAQKAK
modifications: full-length
B5: Q9P2E9 (protein, UniProt Q9P2E9 1-1410, looked up)
chain: MDIYDTQTLGVVVFGGFMVVSAIGIFLVSTFSMKETSYEEALANQRKEMAKTHHQKVEKKKKEKTVEKKGKTKKKEEKPNGKIPDHDPAPNVTVLLREPVRAPAVAVAPTPVQPPIIVAPVATVPAMPQEKLASSPKDKKKKEKKVAKVEPAVSSVVNSIQVLTSKAAILETAPKEVPMVVVPPVGAKGNTPATGTTQGKKAEGTQNQSKKAEGAPNQGRKAEGTPNQGKKTEGTPNQGKKAEGTPNQGKKAEGTPNQGKKAEGAQNQGKKVDTTPNQGKKVEGAPTQGRKAEGAQNQAKKVEGAQNQGKKAEGAQNQGKKGEGAQNQGKKAEGAQNQGKKAEGAQNQGKKAEGAQNQGKKAEGAQNQGKKAEGAQNQGKKAEGAQNQGKKVEGAQNQGKKAEGAQNQGKKAEGAQNQGKKAEGAQNQGKKAEGAQNQGKKAEGAQNQGKKAEGAQNQGKKAEGAQNQGKKVEGAQNQGKKAEGAQNQGKKAEGAQNQGKKAEGAQNQGQKGEGAQNQGKKTEGAQGKKAERSPNQGKKGEGAPIQGKKADSVANQGTKVEGITNQGKKAEGSPSEGKKAEGSPNQGKKADAAANQGKKTESASVQGRNTDVAQSPEAPKQEAPAKKKSGSKKKGEPGPPDADGPLYLPYKTLVSTVGSMVFNEGEAQRLIEILSEKAGIIQDTWHKATQKGDPVAILKRQLEEKEKLLATEQEDAAVAKSKLRELNKEMAAEKAKAAAGEAKVKKQLVAREQEITAVQARMQASYREHVKEVQQLQGKIRTLQEQLENGPNTQLARLQQENSILRDALNQATSQVESKQNAELAKLRQELSKVSKELVEKSEAVRQDEQQRKALEAKAAAFEKQVLQLQASHRESEEALQKRLDEVSRELCHTQSSHASLRADAEKAQEQQQQMAELHSKLQSSEAEVRSKCEELSGLHGQLQEARAENSQLTERIRSIEALLEAGQARDAQDVQASQAEADQQQTRLKELESQVSGLEKEAIELREAVEQQKVKNNDLREKNWKAMEALATAEQACKEKLLSLTQAKEESEKQLCLIEAQTMEALLALLPELSVLAQQNYTEWLQDLKEKGPTLLKHPPAPAEPSSDLASKLREAEETQSTLQAECDQYRSILAETEGMLRDLQKSVEEEEQVWRAKVGAAEEELQKSRVTVKHLEEIVEKLKGELESSDQVREHTSHLEAELEKHMAAASAECQNYAKEVAGLRQLLLESQSQLDAAKSEAQKQSDELALVRQQLSEMKSHVEDGDIAGAPASSPEAPPAEQDPVQLKTQLEWTEAILEDEQTQRQKLTAEFEEAQTSACRLQEELEKLRTAGPLESSETEEASQLKERLEKEKKLTSDLGRAATRLQELLKTTQEQLAREKDTVKKLQEQLEKAEDGSSSKEGTSV
modifications: full-length
B6: P04899 (protein, UniProt P04899 1-355, looked up)
chain: MGCTVSAEDKAAAERSKMIDKNLREDGEKAAREVKLLLLGAGESGKSTIVKQMKIIHEDGYSEEECRQYRAVVYSNTIQSIMAIVKAMGNLQIDFADPSRADDARQLFALSCTAEEQGVLPDDLSGVIRRLWADHGVQACFGRSREYQLNDSAAYYLNDLERIAQSDYIPTQQDVLRTRVKTTGIVETHFTFKDLHFKMFDVGGQRSERKKWIHCFEGVTAIIFCVALSAYDLVLAEDEEMNRMHESMKLFDSICNNKWFTDTSIILFLNKKDLFEEKITHSPLTICFPEYTGANKYDEAASYIQSKFEDLNKRKDTKEIYTHFTCATDTKNVQFVFDAVTDVIIKNNLKDCGLF
modifications: full-length
B7: O43865 (protein, UniProt O43865 1-530, looked up)
chain: MSMPDAMPLPGVGEELKQAKEIEDAEKYSFMATVTKAPKKQIQFADDMQEFTKFPTKTGRRSLSRSISQSSTDSYSSAASYTDSSDDEVSPREKQQTNSKGSSNFCVKNIKQAEFGRREIEIAEQDMSALISLRKRAQGEKPLAGAKIVGCTHITAQTAVLIETLCALGAQCRWSACNIYSTQNEVAAALAEAGVAVFAWKGESEDDFWWCIDRCVNMDGWQANMILDDGGDLTHWVYKKYPNVFKKIRGIVEESVTGVHRLYQLSKAGKLCVPAMNVNDSVTKQKFDNLYCCRESILDGLKRTTDVMFGGKQVVVCGYGEVGKGCCAALKALGAIVYITEIDPICALQACMDGFRVVKLNEVIRQVDVVITCTGNKNVVTREHLDRMKNSCIVCNMGHSNTEIDVTSLRTPELTWERVRSQVDHVIWPDGKRVVLLAEGRLLNLSCSTVPTFVLSITATTQALALIELYNAPEGRYKQDVYLLPKKMDEYVASLHLPSFDAHLTELTDDQAKYLGLNKNGPFKPNYYRY
modifications: full-length

test system: proteins that co-immunoprecipitated with DUX4-CTD constructs expressed in MB135 myoblasts; assay: LC-MS of proteins co-immunoprecipitated with DUX4-CTD (Table 1) and western validation; type: binding, human; set-up: key to 4. mL1dL2 + Dox + IFNG / 4. + IFNG mix / 4. longCTD + Dox + IFNG / 3. + IFNg + Dox longCTD / 3. + Dox longCTD / 3. + IFNG longCTD: peptide-spectrum matches (PSMs) per protein; conditions: LC-MS counts of the listed protein co-immunoprecipitated with DUX4-CTD bait longCTD; experiment 4, Dox + IFNG
In short: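 Two independent experiments compared uninduced, doxycycline and doxycycline+IFNG MB135iDUX4-CTD (plus MB135iDUX4mL1dL2) myoblasts. Anti-FLAG pulldowns (3 h, 4 °C) were eluted in LDS buffer for western validation or with FLAG peptide for trypsin digestion and Orbitrap LC-MS; hits needed ≥2 PSMs in both experiments, ranked by total PSMs.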

| Molecule | 4. longCTD + Dox + IFNG |
| --- | --- |
| B1 | 7 |
| B2 | 13 |
| B3 | 6 |
| B4 | 9 |
| B5 | 4 |
| B6 | 11 |

same assay, conditions: bait longCTD; experiment 3, Dox only

| Molecule | 3. + Dox longCTD |
| --- | --- |
| B7 | 7 |
| B2 | 1 |
| B3 | 1 |
| B4 | 9 |
| B5 | 24 |

same assay, conditions: bait longCTD; experiment 3, IFNg + Dox

| Molecule | 3. + IFNg + Dox longCTD |
| --- | --- |
| B1 | 3 |
| B7 | 11 |
| B2 | 1 |
| B4 | 21 |
| B5 | 68 |
| B6 | 1 |

same assay, conditions: sum over all samples

| Molecule | SUM of PSMS |
| --- | --- |
| B1 | 25 |
| B7 | 19 |
| B2 | 36 |
| B3 | 7 |
| B4 | 46 |
| B5 | 112 |
| B6 | 29 |
